Source: the supplement of paper PMC10201428
± gives the standard deviation of the averaged measurements.

B1: library; a variant is named by its letters at N, in order (parent)
chain: AATGTTGTTGATGCAACCATAAAGTGATATTTAATAATTATTTATAATCAGCAACTTAACCACAAAACAACCATATATTGATATNTCACAAAACAACCATAANTTGATATTTTTGTGAATCGAGTATTTCAGCAAAACTACTGCAGTAAGAA

How the values were obtained:
[1] = variants of: B1; assay: relative integration efficiency (T-LR orientation) vs wild-type transposon end (log2 (normalized fold change)); transposon end mutated: left end; higher = more efficient transposition; settings: with VchCAST RNA-guided transposition machinery (E. coli BL21(DE3) host, lacZ target)
Outline: (§1)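 Each barcoded pool, 1549 left-end or 1849 right-end transposon variants in a pUC57 mini-transposon donor, went into E. coli BL21(DE3) with a T7-driven effector plasmid (CRISPR array, tniQ-cas8-cas7-cas6, tnsA-tnsB-tnsC). Plates contained 0.1 mM IPTG and were held at 37°C for 18 h. Input plasmids and genomic integration junctions were PCR-amplified and read by Illumina sequencing, with two biological output replicates and four reference barcodes. Relative integration efficiency is the fold change of output over input barcode abundance, normalised to the reference barcodes and log-transformed.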

[2] = variants of: B1; assay: relative integration efficiency (T-RL orientation) vs wild-type transposon end (log2 (normalized fold change)); transposon end mutated: left end; higher = more efficient transposition; settings: with VchCAST RNA-guided transposition machinery (E. coli BL21(DE3) host, lacZ target)
Outline: as §1

CG T42C
relative integration efficiency (log2) [1]: 0.252 ± 0.45 | relative integration efficiency (log2) [2]: 0.37 ± 0.039

CG T42A
relative integration efficiency (log2) [1]: 0.162 ± 0.27 | relative integration efficiency (log2) [2]: 0.471 ± 0.051

CG T30G T31G
relative integration efficiency (log2) [1]: -1.56 ± 0.31 | relative integration efficiency (log2) [2]: -0.964 ± 0.45

CG T82G A83C
relative integration efficiency (log2) [1]: -1.19 ± 0.87 | relative integration efficiency (log2) [2]: -1.4 ± 0.66

CG T104G T105G
relative integration efficiency (log2) [1]: -1.76 ± 0.75 | relative integration efficiency (log2) [2]: -1.3 ± 0.71

CG T43A A44T T45A A46T
relative integration efficiency (log2) [1]: -1.06 ± 1.4 | relative integration efficiency (log2) [2]: 0.138 ± 0.031

CG T41A T42A A44G A46G T48G A50G G51A C52G A53T C55A T56C T57A A59C
relative integration efficiency (log2) [1]: 0.615 ± 1 | relative integration efficiency (log2) [2]: -4.14 ± 1.1

CG T113G T114G G115T T116G G117T A118C A119C T120G C121A G122T A123C G124T T125G
relative integration efficiency (log2) [1]: -0.192 ± 0.1 | relative integration efficiency (log2) [2]: -0.0695 ± 0.04

CG T35G A36C
relative integration efficiency (log2) [1]: -0.467 ± 0.11 | relative integration efficiency (log2) [2]: -0.318 ± 0.071

CG T48A C49G
relative integration efficiency (log2) [1]: 0.449 ± 0.71 | relative integration efficiency (log2) [2]: 0.353 ± 0.18

CG T30G T84G T110G
relative integration efficiency (log2) [1]: -2.2 ± 0.51 | relative integration efficiency (log2) [2]: -1.92 ± 0.8

CG T31G T32G
relative integration efficiency (log2) [1]: -0.16 ± 0.58 | relative integration efficiency (log2) [2]: -0.225 ± 0.34

CG T110A T111A
relative integration efficiency (log2) [1]: -0.344 ± 0.074 | relative integration efficiency (log2) [2]: -0.513 ± 0.22

CG T43G A44C
relative integration efficiency (log2) [1]: 0.129 ± 0.046 | relative integration efficiency (log2) [2]: -0.0854 ± 0.05

CG T112G
relative integration efficiency (log2) [1]: -0.249 ± 0.13 | relative integration efficiency (log2) [2]: -0.63 ± 0.13

CG T112C
relative integration efficiency (log2) [1]: -0.138 ± 0.38 | relative integration efficiency (log2) [2]: -0.258 ± 0.13

CG T112A
relative integration efficiency (log2) [1]: -0.239 ± 0.61 | relative integration efficiency (log2) [2]: -0.304 ± 0.19

CG T41G T42G
relative integration efficiency (log2) [1]: 1.22 ± 0.23 | relative integration efficiency (log2) [2]: 0.0624 ± 0.23

CG T41A T42A
relative integration efficiency (log2) [1]: 0.775 ± 0.0053 | relative integration efficiency (log2) [2]: 0.864 ± 0.047

CG T38A T39A A40T T41A
relative integration efficiency (log2) [1]: -0.9 ± 1.3 | relative integration efficiency (log2) [2]: 0.168 ± 0.1

CG T100G A101C
relative integration efficiency (log2) [1]: -3.81 ± 1.3 | relative integration efficiency (log2) [2]: -2.16 ± 0.7

CG T56A
relative integration efficiency (log2) [1]: 0.188 ± 0.11 | relative integration efficiency (log2) [2]: -0.167 ± 0.0046

CG T56G
relative integration efficiency (log2) [1]: -0.0431 ± 0.26 | relative integration efficiency (log2) [2]: -0.112 ± 0.12

CG T56C
relative integration efficiency (log2) [1]: -0.129 ± 0.16 | relative integration efficiency (log2) [2]: -0.2 ± 0.061

CG T57G A58C A59C C60A
relative integration efficiency (log2) [1]: -1.48 ± 0.099 | relative integration efficiency (log2) [2]: -0.817 ± 0.47

CG T112A T113A T114A G115C
relative integration efficiency (log2) [1]: -0.584 ± 1 | relative integration efficiency (log2) [2]: 0.0734 ± 0.12

CG T45G A46C
relative integration efficiency (log2) [1]: 0.396 ± 0.26 | relative integration efficiency (log2) [2]: -0.219 ± 0.2

CG T32G T86G T112G
relative integration efficiency (log2) [1]: -0.809 ± 0.9 | relative integration efficiency (log2) [2]: -0.686 ± 0.19

CG T30A T84A T110A
relative integration efficiency (log2) [1]: -0.322 ± 0.51 | relative integration efficiency (log2) [2]: -0.403 ± 0.24

CG T108A A109T
relative integration efficiency (log2) [1]: -0.852 ± 0.53 | relative integration efficiency (log2) [2]: -0.848 ± 0.47

CG T48A C49G A50T G51C C52G A53T A54T C55G T56A T57A A58T
relative integration efficiency (log2) [1]: -2.96 ± 2.6 | relative integration efficiency (log2) [2]: -3.43 ± 1.1

GG T86A C87G A88T
relative integration efficiency (log2) [1]: 0.143 ± 0.77 | relative integration efficiency (log2) [2]: -0.152 ± 0.19

CG T39C A40T T41G T43G A46T A47G C49T G51T A54C C55A
relative integration efficiency (log2) [1]: -4.29 ± 1.2 | relative integration efficiency (log2) [2]: -2.86 ± 0.84

CG T100A A101T
relative integration efficiency (log2) [1]: -0.623 ± 0.79 | relative integration efficiency (log2) [2]: -0.364 ± 0.49

CG T79A G80C A81T T82A
relative integration efficiency (log2) [1]: -2.46 ± 2 | relative integration efficiency (log2) [2]: -1.87 ± 0.95

CG T113A T114A
relative integration efficiency (log2) [1]: -0.122 ± 0.087 | relative integration efficiency (log2) [2]: -0.426 ± 0.25

CG T86A C87G A88T C89G
relative integration efficiency (log2) [1]: 0.1 ± 0.54 | relative integration efficiency (log2) [2]: -0.174 ± 0.12

CG T78A T79A G80C A81T
relative integration efficiency (log2) [1]: -1.07 ± 0.89 | relative integration efficiency (log2) [2]: -1.38 ± 0.59

CG T76G A77C T78G T79G
relative integration efficiency (log2) [1]: -3.06 ± 1.4 | relative integration efficiency (log2) [2]: -2.26 ± 0.77

CG T41A A44G A46T A50C A53T A54C C55A T56C T57A A59T C60T A62C
relative integration efficiency (log2) [1]: -2.59 ± 1.4 | relative integration efficiency (log2) [2]: -3.65 ± 0.63

TG T76A T78A T84A C87A
relative integration efficiency (log2) [1]: 0.281 ± 0.38 | relative integration efficiency (log2) [2]: -0.028 ± 0.21

CG T32A
relative integration efficiency (log2) [1]: 0.415 ± 0.98 | relative integration efficiency (log2) [2]: 0.178 ± 0.032

CG T32C
relative integration efficiency (log2) [1]: 0.089 ± 0.39 | relative integration efficiency (log2) [2]: -0.0923 ± 0.12

CG T32G
relative integration efficiency (log2) [1]: -0.347 ± 0.098 | relative integration efficiency (log2) [2]: -0.146 ± 0.14

CG T105G G106T A107C T108G
relative integration efficiency (log2) [1]: -2.48 ± 1.8 | relative integration efficiency (log2) [2]: -2 ± 0.7

CG T38G T39G
relative integration efficiency (log2) [1]: 0.139 ± 0.043 | relative integration efficiency (log2) [2]: -0.161 ± 0.039

CG T104C
relative integration efficiency (log2) [1]: -0.483 ± 0.33 | relative integration efficiency (log2) [2]: -0.257 ± 0.037

CG T104G
relative integration efficiency (log2) [1]: -0.2 ± 0.48 | relative integration efficiency (log2) [2]: -0.0872 ± 0.27

CG T104A
relative integration efficiency (log2) [1]: -0.147 ± 0.15 | relative integration efficiency (log2) [2]: -0.341 ± 0.23

CG T45A A46T A47T T48A
relative integration efficiency (log2) [1]: 0.244 ± 0.78 | relative integration efficiency (log2) [2]: 0.0806 ± 0.061

CG T30A T31A T32A A33T
relative integration efficiency (log2) [1]: -0.351 ± 0.54 | relative integration efficiency (log2) [2]: -0.346 ± 0.29

CG T28G A29C T30G T31G
relative integration efficiency (log2) [1]: -2.32 ± 0.87 | relative integration efficiency (log2) [2]: -1.98 ± 0.8

CG T76A A77T
relative integration efficiency (log2) [1]: -0.19 ± 0.3 | relative integration efficiency (log2) [2]: 0.117 ± 0.012

CG T32G A33C
relative integration efficiency (log2) [1]: 0.439 ± 0.1 | relative integration efficiency (log2) [2]: 0.352 ± 0.14

CG T111G T112G T113G T114G
relative integration efficiency (log2) [1]: -0.443 ± 0.72 | relative integration efficiency (log2) [2]: -0.798 ± 0.34

CG T79A G80C
relative integration efficiency (log2) [1]: -1.35 ± 1.1 | relative integration efficiency (log2) [2]: -1.89 ± 0.83

CG T78G T79G G80T A81C
relative integration efficiency (log2) [1]: -3.25 ± 1.3 | relative integration efficiency (log2) [2]: -2.44 ± 0.79

GG T86A
relative integration efficiency (log2) [1]: 0.153 ± 0.2 | relative integration efficiency (log2) [2]: -0.397 ± 0.17
